Data published in US20140357844A1 (RINAT NEUROSCIENCE, published 2014).
Where “and” joins values, the source holds several entries; their conditions need not be identical. Equal values may be shown once.

T1: Trop-2 on Trop-2 expressing tumor cells (human, UniProt P09758 27-323)
T1 sequence: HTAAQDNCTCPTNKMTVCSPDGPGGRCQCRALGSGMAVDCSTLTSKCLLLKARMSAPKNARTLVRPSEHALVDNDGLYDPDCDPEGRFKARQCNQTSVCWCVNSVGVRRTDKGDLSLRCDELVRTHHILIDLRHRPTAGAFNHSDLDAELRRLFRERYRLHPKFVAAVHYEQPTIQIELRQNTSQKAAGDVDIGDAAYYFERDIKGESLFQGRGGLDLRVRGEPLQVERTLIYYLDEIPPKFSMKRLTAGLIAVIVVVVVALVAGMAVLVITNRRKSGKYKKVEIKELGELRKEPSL

B1: h7E6-SVGN-TG1-vcMMAD (AcLys-vcMMAD conjugate) (antibody, V domains shown)
VH: QVQLQESGPGLVKPSETLSLTCTVSGGSISSYGVHWIRQPPGKGLEWIGVIWTSGVTDYNSALMGRVTISVDTSKNQFSLKLSSVTAADTAVYYCARDGDYDRYTMDYWGQGTLVTVSS
VL: DIVMTQSPDSLAVSLGERATINCRASKSVSTSNYSYMHWYQQKPGQPPKLLIYLASNLESGVPDRFSGSGSGTDFTLTISSLQAEDVAVYYCQHSRELPYTFGQGTKLEIK
B2: h7E6-SVGL-TG1-vcMMAD (AcLys-vcMMAD conjugate) (antibody, V domains shown)
VH: QVQLQESGPGLVKPSETLSLTCTVSGGSISSYGVHWIRQPPGKGLEWIGVIWTSGVTDYNSALMGRVTISVDTSKNQFSLKLSSVTAADTAVYYCARDGDYDRYTMDYWGQGTLVTVSS
VL: DIVMTQSPDSLAVSLGERATINCRASKSVSTSLYSYMHWYQQKPGQPPKLLIYLASNLESGVPDRFSGSGSGTDFTLTISSLQAEDVAVYYCQHSRELPYTFGQGTKLEIK
B3: h7E6-N-TG1-vcMMAD (AcLys-vcMMAD conjugate) (antibody, V domains shown)
VH: QVQLQESGPGLVKPSETLSLTCTVSGGSISSYGVHWIRQPPGKGLEWIGVIWTGGSTDYNSALMSRVTISVDTSKNQFSLKLSSVTAADTAVYYCARDGDYDRYTMDYWGQGTLVTVSS
VL: DIVMTQSPDSLAVSLGERATINCRASKSVSTSNYSYMHWYQQKPGQPPKLLIYLASNLESGVPDRFSGSGSGTDFTLTISSLQAEDVAVYYCQHSRELPYTFGQGTKLEIK
B4: h7E6-WT-TG1-vcMMAD (AcLys-vcMMAD conjugate) (antibody, V domains shown)
VH: QVQLQESGPGLVKPSETLSLTCTVSGGSISSYGVHWIRQPPGKGLEWIGVIWTGGSTDYNSALMSRVTISVDTSKNQFSLKLSSVTAADTAVYYCARDGDYDRYTMDYWGQGTLVTVSS
VL: DIVMTQSPDSLAVSLGERATINCRASKSVSTSGYSYMHWYQQKPGQPPKLLIYLASNLESGVPDRFSGSGSGTDFTLTISSLQAEDVAVYYCQHSRELPYTFGQGTKLEIK
B5: h7E6SVG-K222R-LCQ3-AcLys-vc-PABC-MMAD (antibody, human IgG1, V domains shown)
VH: QVQLQESGPGLVKPSETLSLTCTVSGGSISSYGVHWIRQPPGKGLEWIGVIWTSGVTDYNSALMGRVTISVDTSKNQFSLKLSSVTAADTAVYYCARDGDYDRYTMDYWGQGTLVTVSS
VL: DIVMTQSPDSLAVSLGERATINCRASKSVSTSGYSYMHWYQQKPGQPPKLLIYLASNLESGVPDRFSGSGSGTDFTLTISSLQAEDVAVYYCQHSRELPYTFGQGTKLEIK
B6: h7E6-L-TG1-vcMMAD (AcLys-vcMMAD conjugate) (antibody, V domains shown)
VH: QVQLQESGPGLVKPSETLSLTCTVSGGSISSYGVHWIRQPPGKGLEWIGVIWTGGSTDYNSALMSRVTISVDTSKNQFSLKLSSVTAADTAVYYCARDGDYDRYTMDYWGQGTLVTVSS
VL: DIVMTQSPDSLAVSLGERATINCRASKSVSTSLYSYMHWYQQKPGQPPKLLIYLASNLESGVPDRFSGSGSGTDFTLTISSLQAEDVAVYYCQHSRELPYTFGQGTKLEIK
B7: h7E6SVG-TG6-AcLys-vc-PABC-MMAD (antibody, human IgG1, V domains shown)
VH: QVQLQESGPGLVKPSETLSLTCTVSGGSISSYGVHWIRQPPGKGLEWIGVIWTSGVTDYNSALMGRVTISVDTSKNQFSLKLSSVTAADTAVYYCARDGDYDRYTMDYWGQGTLVTVSS
VL: DIVMTQSPDSLAVSLGERATINCRASKSVSTSGYSYMHWYQQKPGQPPKLLIYLASNLESGVPDRFSGSGSGTDFTLTISSLQAEDVAVYYCQHSRELPYTFGQGTKLEIK
B8: h7E6-SVG-TG1-vcMMAD (Aminocapryl-vcMMAD conjugate) (antibody, V domains shown)
VH: QVQLQESGPGLVKPSETLSLTCTVSGGSISSYGVHWIRQPPGKGLEWIGVIWTSGVTDYNSALMGRVTISVDTSKNQFSLKLSSVTAADTAVYYCARDGDYDRYTMDYWGQGTLVTVSS
VL: DIVMTQSPDSLAVSLGERATINCRASKSVSTSGYSYMHWYQQKPGQPPKLLIYLASNLESGVPDRFSGSGSGTDFTLTISSLQAEDVAVYYCQHSRELPYTFGQGTKLEIK
B9: 6G11-TG1-vcMMAD (AcLys-vcMMAD conjugate) (antibody, V domains shown)
VH: QVQLQQPGAELVRPGASVKLSCKASGYTFTSYWINWVKQRPGHGLEWIGNIYPSDSYSNYNQKFKDKATLTVDKSSSTAYMQVSSPTSEDSAVYYCTYGSSFDYWGQGTTVTVSS
VL: DILLTQSPAILSVSPGERVSFSCRASQTIGTSIHWYQQRTNGSPRLLIKYASESISGIPSRFSGSGSGTDFTLSINSVESEDIADYYCQQSNSWPFTFGSGTKLEIK
B10: h7E6SVG-N297Q/K222R-PEG6MMAD (antibody, V domains shown)
VH: QVQLQESGPGLVKPSETLSLTCTVSGGSISSYGVHWIRQPPGKGLEWIGVIWTSGVTDYNSALMGRVTISVDTSKNQFSLKLSSVTAADTAVYYCARDGDYDRYTMDYWGQGTLVTVSS
VL: DIVMTQSPDSLAVSLGERATINCRASKSVSTSGYSYMHWYQQKPGQPPKLLIYLASNLESGVPDRFSGSGSGTDFTLTISSLQAEDVAVYYCQHSRELPYTFGQGTKLEIK
modifications: N297Q/K222R mutations in the CH2/Hinge domains of heavy chain; conjugated with PEG6-MMAD
B11: h7E6SVG-LCQ04/K222R-vc0101 (antibody, human IgG1, V domains shown)
VH: QVQLQESGPGLVKPSETLSLTCTVSGGSISSYGVHWIRQPPGKGLEWIGVIWTSGVTDYNSALMGRVTISVDTSKNQFSLKLSSVTAADTAVYYCARDGDYDRYTMDYWGQGTLVTVSS
VL: DIVMTQSPDSLAVSLGERATINCRASKSVSTSGYSYMHWYQQKPGQPPKLLIYLASNLESGVPDRFSGSGSGTDFTLTISSLQAEDVAVYYCQHSRELPYTFGQGTKLEIK
modifications: AcLys-vc-PABC-0101 on tag LCQ04 (SEQ ID NO: 79 as printed) at the C-terminus of the light chain; K222R in the heavy chain constant region
B12: h7E6SVG-TG6-vc0101 (antibody, human IgG1, V domains shown)
VH: QVQLQESGPGLVKPSETLSLTCTVSGGSISSYGVHWIRQPPGKGLEWIGVIWTSGVTDYNSALMGRVTISVDTSKNQFSLKLSSVTAADTAVYYCARDGDYDRYTMDYWGQGTLVTVSS
VL: DIVMTQSPDSLAVSLGERATINCRASKSVSTSGYSYMHWYQQKPGQPPKLLIYLASNLESGVPDRFSGSGSGTDFTLTISSLQAEDVAVYYCQHSRELPYTFGQGTKLEIK
modifications: AcLys-vc-PABC-0101 on tag TG6 (LLQGA, SEQ ID NO: 79) at the C-terminus of the heavy chain
B13: h7E6SVG-LCQ03/K222R-vc0101 (antibody, human IgG1, V domains shown)
VH: QVQLQESGPGLVKPSETLSLTCTVSGGSISSYGVHWIRQPPGKGLEWIGVIWTSGVTDYNSALMGRVTISVDTSKNQFSLKLSSVTAADTAVYYCARDGDYDRYTMDYWGQGTLVTVSS
VL: DIVMTQSPDSLAVSLGERATINCRASKSVSTSGYSYMHWYQQKPGQPPKLLIYLASNLESGVPDRFSGSGSGTDFTLTISSLQAEDVAVYYCQHSRELPYTFGQGTKLEIK
modifications: AcLys-vc-PABC-0101 on tag LCQ03 (SEQ ID NO: 78) at the C-terminus of the light chain; K222R in the heavy chain constant region

biological target: T1, Trop-2 on Trop-2 expressing tumor cells; assay: cell-based or functional assay

| Binder | Ab-IC50, cell viability (CellTiter-Glo, 96 h), A431 (Trop-2+++) | Ab-IC50, cell viability (CellTiter-Glo, 96 h), BxPC3 (Trop-2++) | Ab-IC50, cell viability (CellTiter-Glo, 96 h), CAPAN-2 (Trop-2+/++) | Ab-IC50, cell viability (CellTiter-Glo, 96 h), Colo205 (Trop-2+) |
| --- | --- | --- | --- | --- |
| B1 | 0.023 µg/mL and 0.153 nM | 0.051 µg/mL and 0.337 nM | 2.01 µg/mL and 13.4 nM | 0.083 µg/mL and 0.552 nM |
| B2 | 0.018 µg/mL and 0.12 nM | – | 2.44 µg/mL and 16.3 nM | 0.052 µg/mL and 0.345 nM |
| B3 | 0.024 µg/mL and 0.163 nM | – | 2.02 µg/mL and 13.5 nM | 0.1 µg/mL and 0.668 nM |
| B4 | 0.022 µg/mL and 0.144 nM | 0.025 µg/mL and 0.169 nM | 1.96 µg/mL and 13 nM | 0.445 µg/mL and 2.97 nM |
| B5 | 0.01 µg/mL and 0.07 nM | 0.014 µg/mL and 0.092 nM | – | 2.68 µg/mL and 17.9 nM |
| B6 | 0.02 µg/mL and 0.132 nM | 0.035 µg/mL and 0.232 nM | 2.03 µg/mL and 13.5 nM | 0.082 µg/mL and 0.549 nM |
| B7 | 0.011 µg/mL and 0.072 nM | 0.032 µg/mL and 0.214 nM | – | 0.209 µg/mL and 1.39 nM |
| B8 | – | 0.034 µg/mL and 0.229 nM | – | – |
| B9 | 0.03 µg/mL and 0.197 nM | – | – | 0.379 µg/mL and 2.52 nM |

biological target: T1, Trop-2 on Trop-2 expressing tumor cells; assay: cell-based or functional assay; remark: another data set of the same source

| Binder | Ab IC50, cell viability (CellTiter-Glo, 96 h), A431 (Trop2 +++) [pM] | Ab IC50, cell viability (CellTiter-Glo, 96 h), BxPC3 (Trop2 ++) [pM] | Ab IC50, cell viability (CellTiter-Glo, 96 h), Calu-3 (Trop2 ++) [pM] | Ab IC50, cell viability (CellTiter-Glo, 96 h), Colo205 (Trop2 +) [pM] | Ab IC50, cell viability (CellTiter-Glo, 96 h), MDA-MB-468 (Trop2 ++) [pM] | Ab IC50, cell viability (CellTiter-Glo, 96 h), NCI-H292 (Trop2 ++) [pM] | Ab IC50, cell viability (CellTiter-Glo, 96 h), NCI-H1650 (Trop2 ++) [pM] | Ab IC50, cell viability (CellTiter-Glo, 96 h), OVCAR3 (Trop2 +++) [pM] | Ab IC50, cell viability (CellTiter-Glo, 96 h), SKBR3 (Trop2 +/++) [pM] |
| --- | --- | --- | --- | --- | --- | --- | --- | --- | --- |
| B10 | 70 | 30 | 500 | 21200 | 190 | 30 | 380 | 980 | 80 |
| B11 | – | 110 | 1510 | – | – | 1840 | – | – | – |
| B12 | 120 | 320 | 530 | 32900 | 770 | 630 | 1920 | 560 | 420 |
| B13 | 30 | 130 | – | 174000 | – | – | – | – | – |
